The term EC50 denotes the concentration giving half of the maximal effect. A higher EC50 goes with weaker potency.

Experiment [1] has as its target T1, human CD38 (human, UniProt P28907 1-300).
T1 construct: whole, on cells; also called full-length human CD38
As to the kind of experiment: flow cytometry on live H929 cells, PE anti-human IgG-Fc detection. For orientation: A flow cytometer gives signals particle by particle.

The target in experiment [2] is T1, human CD38. As to the kind of experiment: flow cytometry on live U266-CD38+ cells, PE anti-human IgG-Fc detection.

B1: daratumumab (antibody, V domains shown)
VH: EVQLLESGGGLVQPGGSLRLSCAVSGFTFNSFAMSWVRQAPGKGLEWVSAISGSGGGTYYADSVKGRFTISRDNSKNTLYLQMNSLRAEDTAVYFCAKDKILWFGEPVFDYWGQGTLVTVSS
VL: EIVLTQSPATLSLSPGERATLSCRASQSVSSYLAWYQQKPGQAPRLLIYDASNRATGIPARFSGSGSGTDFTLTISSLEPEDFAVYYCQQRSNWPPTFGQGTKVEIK
As to B1, the EC50 with human CD38 [1] is 1.02 nM; with human CD38 [2], 0.13 nM.

Values taken from patent publication US20240342298A1 (IMMUNWORK, published 2024).
